# Laboratory results as given in IntAct's records for PubMed 29892012.
# B1: Acetylcholine receptor subunit gamma (Homo sapiens), P07510 (parent)
# chain: MHGGQGPLLLLLLLAVCLGAQGRNQEERLLADLMQNYDPNLRPAERDSDVVNVSLKLTLTNLISLNEREEALTTNVWIEMQWCDYRLRWDPRDYEGLWVLRVPSTMVWRPDIVLENNVDGVFEVALYCNVLVSPDGCIYWLPPAIFRSACSISVTYFPFDWQNCSLIFQSQTYSTNEIDLQLSQEDGQTIEWIFIDPEAFTENGEWAIQHRPAKMLLDPAAPAQEAGHQKVVFYLLIQRKPLFYVINIIAPCVLISSVAILIHFLPAKAGGQKCTVAINVLLAQTVFLFLVAKKVPETSQAVPLISKYLTFLLVVTILIVVNAVVVLNVSLRSPHTHSMARGVRKVFLRLLPQLLRMHVRPLAPAAVQDTQSRLQNGSSGWSITTGEEVALCLPRSELLFQQWQRQGLVAAALEKLEKGPELGLSQFCGSLKQAAPAIQACVEACNLIACARHQQSHFDNGNEEWFLVGRVLDRVCFLAMLSLFICGTAGIFLMAHYNRVPALPFPGDPRPYLPSPD
# partner: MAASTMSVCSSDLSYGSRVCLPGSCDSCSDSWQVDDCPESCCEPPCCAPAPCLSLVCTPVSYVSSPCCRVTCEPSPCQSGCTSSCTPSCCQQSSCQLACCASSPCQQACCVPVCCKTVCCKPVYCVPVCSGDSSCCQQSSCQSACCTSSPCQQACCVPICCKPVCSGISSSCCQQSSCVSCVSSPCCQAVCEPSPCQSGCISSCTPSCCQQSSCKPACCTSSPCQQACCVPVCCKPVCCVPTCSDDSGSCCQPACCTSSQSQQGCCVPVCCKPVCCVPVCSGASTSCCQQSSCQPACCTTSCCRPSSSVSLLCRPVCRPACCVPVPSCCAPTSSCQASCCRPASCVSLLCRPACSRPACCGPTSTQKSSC
# B2: RNA-binding protein 3 (Homo sapiens), P98179 (parent)
# chain: MSSEEGKLFVGGLNFNTDEQALEDHFSSFGPISEVVVVKDRETQRSRGFGFITFTNPEHASVAMRAMNGESLDGRQIRVDHAGKSARGTRGGGFGAHGRGRSYSRGGGDQGYGSGRYYDSRPGGYGYGYGRSRDYNGRNQGGYDRYSGGNYRDNYDN
# partner: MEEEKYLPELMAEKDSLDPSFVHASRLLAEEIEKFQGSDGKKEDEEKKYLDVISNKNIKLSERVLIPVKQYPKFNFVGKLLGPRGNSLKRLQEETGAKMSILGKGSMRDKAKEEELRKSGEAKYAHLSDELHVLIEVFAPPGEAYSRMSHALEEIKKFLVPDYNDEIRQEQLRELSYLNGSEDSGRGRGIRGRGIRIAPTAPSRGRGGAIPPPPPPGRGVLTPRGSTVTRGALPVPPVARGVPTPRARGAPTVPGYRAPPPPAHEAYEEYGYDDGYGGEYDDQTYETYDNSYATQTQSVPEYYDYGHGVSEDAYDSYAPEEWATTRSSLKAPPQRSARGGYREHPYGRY
# B3: Zinc finger CCCH domain-containing protein 11A (Homo sapiens), O75152 (parent)
# chain: MPNQGEDCYFFFYSTCTKGDSCPFRHCEAAIGNETVCTLWQEGRCFRQVCRFRHMEIDKKRSEIPCYWENQPTGCQKLNCAFHHNRGRYVDGLFLPPSKTVLPTVPESPEEEVKASQLSVQQNKLSVQSNPSPQLRSVMKVESSENVPSPTHPPVVINAADDDEDDDDQFSEEGDETKTPTLQPTPEVHNGLRVTSVRKPAVNIKQGECLNFGIKTLEEIKSKKMKEKSKKQGEGSSGVSSLLLHPEPVPGPEKENVRTVVRTVTLSTKQGEEPLVRLSLTERLGKRKFSAGGDSDPPLKRSLAQRLGKKVEAPETNIDKTPKKAQVSKSLKERLGMSADPDNEDATDKVNKVGEIHVKTLEEILLERASQKRGELQTKLKTEGPSKTDDSTSGARSSSTIRIKTFSEVLAEKKHRQQEAERQKSKKDTTCIKLKIDSEIKKTVVLPPIVASRGQSEEPAGKTKSMQEVHIKTLEEIKLEKALRVQQSSESSTSSPSQHEATPGARRLLRITKRTGMKEEKNLQEGNEVDSQSSIRTEAKEASGETTGVDITKIQVKRCETMREKHMQKQQEREKSVLTPLRGDVASCNTQVAEKPVLTAVPGITRHLTKRLPTKSSQKVEVETSGIGDSLLNVKCAAQTLEKRGKAKPKVNVKPSVVKVVSSPKLAPKRKAVEMHAAVIAAVKPLSSSSVLQEPPAKKAAVAVVPLVSEDKSVTVPEAENPRDSLVLPPTQSSSDSSPPEVSGPSSSQMSMKTRRLSSASTGKPPLSVEDDFEKLIWEISGGKLEAEIDLDPGKDEDDLLLELSEMIDS
# B4: Rho guanine nucleotide exchange factor 3 (Homo sapiens), Q9NR81 (parent)
# chain: MVAKDYPFYLTVKRANCSLELPPASGPAKDAEEPSNKRVKPLSRVTSLANLIPPVKATPLKRFSQTLQRSISFRSESRPDILAPRPWSRNAAPSSTKRRDSKLWSETFDVCVNQMLTSKEIKRQEAIFELSQGEEDLIEDLKLAKKAYHDPMLKLSIMTEQELNQIFGTLDSLIPLHEELLSQLRDVRKPDGSTEHVGPILVGWLPCLSSYDSYCSNQVAAKALLDHKKQDHRVQDFLQRCLESPFSRKLDLWNFLDIPRSRLVKYPLLLREILRHTPNDNPDQQHLEEAINIIQGIVAEINTKTGESECRYYKERLLYLEEGQKDSLIDSSRVLCCHGELKNNRGVKLHVFLFQEVLVITRAVTHNEQLCYQLYRQPIPVKDLLLEDLQDGEVRLGGSLRGAFSNNERIKNFFRVSFKNGSQSQTHSLQANDTFNKQQWLNCIRQAKETVLCAAGQAGVLDSEGSFLNPTTGSRELQGETKLEQMDQSDSESDCSMDTSEVSLDCERMEQTDSSCGNSRHGESNV
# partner: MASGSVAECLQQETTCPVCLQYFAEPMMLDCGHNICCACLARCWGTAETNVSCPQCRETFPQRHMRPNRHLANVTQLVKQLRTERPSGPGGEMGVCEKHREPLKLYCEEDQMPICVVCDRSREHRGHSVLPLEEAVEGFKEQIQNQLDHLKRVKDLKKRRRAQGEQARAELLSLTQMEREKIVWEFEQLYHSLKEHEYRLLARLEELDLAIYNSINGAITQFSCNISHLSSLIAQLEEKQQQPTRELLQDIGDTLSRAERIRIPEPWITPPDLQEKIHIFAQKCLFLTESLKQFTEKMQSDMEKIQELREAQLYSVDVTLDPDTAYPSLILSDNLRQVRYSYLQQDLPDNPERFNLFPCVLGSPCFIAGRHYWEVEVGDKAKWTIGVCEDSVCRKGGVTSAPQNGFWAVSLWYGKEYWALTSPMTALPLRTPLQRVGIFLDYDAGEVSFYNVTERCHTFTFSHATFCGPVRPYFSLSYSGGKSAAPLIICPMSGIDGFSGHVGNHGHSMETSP
# B5: Rho guanine nucleotide exchange factor 3 (Homo sapiens), Q9NR81 (parent)
# chain: B4 chain
# partner: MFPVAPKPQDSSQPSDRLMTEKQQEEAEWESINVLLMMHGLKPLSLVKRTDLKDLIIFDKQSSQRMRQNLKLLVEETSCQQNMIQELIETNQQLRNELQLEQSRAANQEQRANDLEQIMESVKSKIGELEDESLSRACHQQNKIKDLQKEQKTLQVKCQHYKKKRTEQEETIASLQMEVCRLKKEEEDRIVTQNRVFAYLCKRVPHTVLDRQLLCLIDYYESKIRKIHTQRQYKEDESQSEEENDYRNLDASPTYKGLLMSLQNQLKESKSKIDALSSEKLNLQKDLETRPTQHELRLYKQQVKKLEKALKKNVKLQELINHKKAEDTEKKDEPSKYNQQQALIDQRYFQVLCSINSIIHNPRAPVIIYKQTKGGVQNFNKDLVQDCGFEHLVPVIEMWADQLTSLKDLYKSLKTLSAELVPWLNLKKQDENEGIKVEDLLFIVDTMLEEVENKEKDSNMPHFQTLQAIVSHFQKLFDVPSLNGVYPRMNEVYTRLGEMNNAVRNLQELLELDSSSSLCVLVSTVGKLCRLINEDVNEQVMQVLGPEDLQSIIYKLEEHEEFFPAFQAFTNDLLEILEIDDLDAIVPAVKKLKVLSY
# B6: Abl interactor 2 (Homo sapiens), Q9NYB9 (parent)
# chain: MAELQMLLEEEIPGGRRALFDSYTNLERVADYCENNYIQSADKQRALEETKAYTTQSLASVAYLINTLANNVLQMLDIQASQLRRMESSINHISQTVDIHKEKVARREIGILTTNKNTSRTHKIIAPANLERPVRYIRKPIDYTILDDIGHGVKWLLRFKVSTQNMKMGGLPRTTPPTQKPPSPPMSGKGTLGRHSPYRTLEPVRPPVVPNDYVPSPTRNMAPSQQSPVRTASVNQRNRTYSSSGSSGGSHPSSRSSSRENSGSGSVGVPIAVPTPSPPSVFPAPAGSAGTPPLPATSASAPAPLVPATVPSSTAPNAAAGGAPNLADGFTSPTPPVVSSTPPTGHPVQFYSMNRPASRHTPPTIGGSLPYRRPPSITSQTSLQNQMNGGPFYSQNPVSDTPPPPPPVEEPVFDESPPPPPPPEDYEEEEAAVVEYSDPYAEEDPPWAPRSYLEKVVAIYDYTKDKEDELSFQEGAIIYVIKKNDDGWYEGVMNGVTGLFPGNYVESIMHYSE
# partner: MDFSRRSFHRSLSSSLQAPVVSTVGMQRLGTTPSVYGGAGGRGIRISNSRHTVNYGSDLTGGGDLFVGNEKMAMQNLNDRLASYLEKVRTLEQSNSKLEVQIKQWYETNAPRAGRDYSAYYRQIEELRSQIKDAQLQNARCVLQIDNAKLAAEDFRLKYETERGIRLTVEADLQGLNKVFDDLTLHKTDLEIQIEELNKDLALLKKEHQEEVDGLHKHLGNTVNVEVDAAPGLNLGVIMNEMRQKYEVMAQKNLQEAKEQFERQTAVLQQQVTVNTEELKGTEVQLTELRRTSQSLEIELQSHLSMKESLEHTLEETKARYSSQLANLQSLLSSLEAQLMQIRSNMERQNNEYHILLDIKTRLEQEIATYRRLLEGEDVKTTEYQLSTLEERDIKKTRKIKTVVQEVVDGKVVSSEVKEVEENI
# Variants of: B1
# Settings: with kr107_human KRTAP10-7, P60409
row,Variant,effect of a mutation on the interaction
1,I448T,with no effect

# Variants of: B2
# Settings: with khdr2_human KHDRBS2, Q5VWX1
row,Variant,effect of a mutation on the interaction
1,R145H,with no effect

# Variants of: B3
# Settings: with mlh1_human MLH1, P40692
# mlh1_human MLH1, P40692, sequence (P40692 whole entry): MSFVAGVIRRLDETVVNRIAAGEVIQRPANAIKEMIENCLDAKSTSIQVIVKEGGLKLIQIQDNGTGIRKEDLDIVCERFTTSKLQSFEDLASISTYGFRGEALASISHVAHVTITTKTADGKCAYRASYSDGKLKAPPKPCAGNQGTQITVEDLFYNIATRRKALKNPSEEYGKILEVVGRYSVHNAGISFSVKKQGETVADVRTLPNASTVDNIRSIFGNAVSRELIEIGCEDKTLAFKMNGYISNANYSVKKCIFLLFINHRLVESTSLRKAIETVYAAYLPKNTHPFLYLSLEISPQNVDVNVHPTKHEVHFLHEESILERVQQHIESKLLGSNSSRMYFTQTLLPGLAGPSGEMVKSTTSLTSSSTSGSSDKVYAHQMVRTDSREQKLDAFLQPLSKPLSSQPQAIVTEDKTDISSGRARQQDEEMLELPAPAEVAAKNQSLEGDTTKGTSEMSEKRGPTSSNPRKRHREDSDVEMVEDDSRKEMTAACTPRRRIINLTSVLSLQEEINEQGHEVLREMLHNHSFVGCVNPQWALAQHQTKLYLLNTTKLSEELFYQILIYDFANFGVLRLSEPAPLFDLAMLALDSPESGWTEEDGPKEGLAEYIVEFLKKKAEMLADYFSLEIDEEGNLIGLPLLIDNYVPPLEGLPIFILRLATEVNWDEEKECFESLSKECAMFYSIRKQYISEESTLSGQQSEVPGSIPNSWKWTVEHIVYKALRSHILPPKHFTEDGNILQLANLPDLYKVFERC
row,Variant,effect of a mutation on the interaction
1,E408D,with no effect

# Variants of: B4
# Settings: with tri27_human TRIM27, P14373
row,Variant,effect of a mutation on the interaction
1,P34S,with no effect

# Variants of: B5
# Settings: with cep70_human CEP70, Q8NHQ1
row,Variant,effect of a mutation on the interaction
1,P34S,with no effect

# Variants of: B6
# Settings: with KRT20, P35900
row,Variant,effect of a mutation on the interaction
1,E202K,with no effect

# Variants of: B6
# Settings: with KRT20, P35900
# Remark: another data set of the same source
row,Variant,effect of a mutation on the interaction
1,R373C,with no effect
